Measurements reported in article PMC2494773 (American Journal of Physiology. Heart and Circulatory …, 2008).

Experiments:
SEC = target: the molecule itself; assay: SEC
[1] = target: the molecule itself; assay: non-reducing SDS-PAGE and immunoblot

B1: peroxiredoxin 2 (Prdx2), rat heart (natural protein, rat (endogenous in heart), UniProt P35704 1-198, looked up)
chain: MASGNAHIGKPAPDFTGTAVVDGAFKEIKLSDYRGKYVVLFFYPLDFTFVCPTEIIAFSDHAEDFRKLGCEVLGVSVDSQFTHLAWINTPRKEGGLGPLNIPLLADVTKSLSQNYGVLKNDEGIAYRGLFIIDAKGVLRQITVNDLPVGRSVDEALRLVQAFQYTDEHGEVCPAGWKPGSDTIKPNVDDSKEYFSKHN
B1 was tested, and the “stoichiometry N” value (SEC) was 10 and the “stoichiometry N” value [1] was 2.

B2: peroxiredoxin 1 (Prdx1), rat heart (natural protein, rat (endogenous in heart), UniProt Q63716 1-199, looked up)
chain: MSSGNAKIGHPAPSFKATAVMPDGQFKDISLSDYKGKYVVFFFYPLDFTFVCPTEIIAFSDRAEEFKKLNCQVIGASVDSHFCHLAWINTPKKQGGLGPMNIPLVSDPKRTIAQDYGVLKADEGISFRGLFIIDDKGILRQITINDLPVGRSVDEILRLVQAFQFTDKHGEVCPAGWKPGSDTIKPDVNKSKEYFSKQK
In the case of B2, the “stoichiometry N” value [1] is reported as 2.
